Measured values from doi:10.1101/2023.09.07.556688 (bioRxiv, 2023).

Columns and labels:
[1] = target: the molecule itself; experiment: cryo-EM structure
[2] = target: the molecule itself; experiment: negative-stain EM

Row | Protein | stoichiometry N [1] | binding result [2]
1 | Arabidopsis thaliana Delta-1-pyrroline-5-carboxylate synthase 2 (atP5CS2), wild type (enzyme, UniProt P54888 1-726, looked up) MTEIDRSRAFAKDVKRIVVKVGTAVVTGKGGRLALGRLGAICEQLAELNSDGFEVILVSSGAVGLGRQRLRYRQLVNSSFADLQKPQMELDGKACAGVGQSSLMAYYETMFDQLDVTVAQMLVTDSSFRDKDFRKQLSETVKAMLRMRVIPVFNENDAISTRRAPYKDSTGIFWDNDSLAALLSLELKADLLILLSDVEGLYTGPPSDSTSKLIHTFIKEKHQDEITFGEKSKLGRGGMTAKVKAAVNAAYGGVPVIITSGYAAENISKVLRGLRVGTLFHQDAHLWAPVVDTTSRDMAVAARESSRKLQALSSEDRKQILHDIANALEVNEKTIKAENDLDVAAAQEAGYEESLVARLVMKPGKISSLAASVRQLAEMEDPIGRVLKKTQVADDLILEKTSSPIGVLLIVFESRPDALVQIASLAIRSGNGLLLKGGKEARRSNAILHKVITDAIPETVGGKLIGLVTSREEIPDLLKLDDVIDLVIPRGSNKLVSQIKNSTKIPVLGHADGICHVYVDKSGKLDMAKRIVSDAKLDYPAACNAMETLLVHKDLEQNGFLDDLIYVLQTKGVTLYGGPRASAKLNIPETKSFHHEYSSKACTVEIVEDVYGAIDHIHQHGSAHTDCIVTEDSEVAEIFLRQVDSAAVFHNASTRFSDGFRFGLGAEVGISTSRIHARGPVGVEGLLTTRWIMRGKGQVVDGDNGIVYTHKDLPVLQRTEAVENGI | 4 | 
2 | truncated atP5CS2 protein consisting of residues 1-290 (atP5CS2-GK) (domain or fragment, Arabidopsis thaliana, UniProt P54888 1-290, looked up) MTEIDRSRAFAKDVKRIVVKVGTAVVTGKGGRLALGRLGAICEQLAELNSDGFEVILVSSGAVGLGRQRLRYRQLVNSSFADLQKPQMELDGKACAGVGQSSLMAYYETMFDQLDVTVAQMLVTDSSFRDKDFRKQLSETVKAMLRMRVIPVFNENDAISTRRAPYKDSTGIFWDNDSLAALLSLELKADLLILLSDVEGLYTGPPSDSTSKLIHTFIKEKHQDEITFGEKSKLGRGGMTAKVKAAVNAAYGGVPVIITSGYAAENISKVLRGLRVGTLFHQDAHLWAPV |  | binds
